Experimental data taken from paper PMC9482650, “Quantitative fragmentomics allow affinity mapping of interactomes” (Nature Communications, 2022).

Columns and labels:
Experiment in all cases: holdup assay
Design in all cases: key: below the threshold = too weak to quantify, mostly under pKd 3.1 to 4
Conditions in all cases: plain residues with an end cap or a label only (N-terminal biotin on a linker: ado-ado)
[1] = biological target: FRMPD2_1, Q68DX3
[2] = biological target: MAGI2_6, Q86UL8
[3] = biological target: LIMK2, P53671
[4] = biological target: T1, NHERF3_3, Q5T2W1
T1 sequence (Q5T2W1 238-333, limits assumed, looked up): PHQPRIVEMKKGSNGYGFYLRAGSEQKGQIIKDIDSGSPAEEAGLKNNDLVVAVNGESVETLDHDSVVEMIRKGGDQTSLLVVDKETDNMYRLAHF

[5] = biological target: MAGI3_2, Q5TCQ9
[6] = biological target: MAGI2_4, Q86UL8
[7] = biological target: ARHGEF12, Q9NZN5-2
[8] = biological target: CASK, O14936
[9] = biological target: T2, APBA2_2, Q99767
T2 sequence (Q99767 654-744, limits assumed, looked up): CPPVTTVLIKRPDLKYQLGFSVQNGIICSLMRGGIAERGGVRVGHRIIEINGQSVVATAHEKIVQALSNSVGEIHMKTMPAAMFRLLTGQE

[10] = biological target: DLG4_1, P78352
[11] = biological target: T3, PCLO, Q9Y6V0
T3 sequence (Q9Y6V0 4491-4600, limits assumed, looked up): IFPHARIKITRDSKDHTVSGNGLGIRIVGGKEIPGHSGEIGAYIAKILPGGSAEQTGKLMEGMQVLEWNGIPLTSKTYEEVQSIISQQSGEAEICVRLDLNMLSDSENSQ

[12] = biological target: GRIP2_3, Q9C0E4
[13] = biological target: GRID2IP_1, A4D2P6
[14] = biological target: DLG2_2, Q15700
[15] = biological target: NHERF2_2, Q15599
[16] = biological target: T4, ARHGAP21, Q5T5U3
T4 sequence (Q5T5U3 45-169, limits assumed, looked up): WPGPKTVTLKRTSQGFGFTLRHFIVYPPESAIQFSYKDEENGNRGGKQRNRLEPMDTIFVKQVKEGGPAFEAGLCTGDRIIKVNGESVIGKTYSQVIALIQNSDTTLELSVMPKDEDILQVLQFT

[17] = biological target: T5, APBA1_2, Q02410
T5 sequence (Q02410 742-832, limits assumed, looked up): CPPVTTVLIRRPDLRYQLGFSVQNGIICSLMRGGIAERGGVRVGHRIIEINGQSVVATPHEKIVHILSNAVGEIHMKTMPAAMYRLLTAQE

[18] = biological target: FRMPD4, Q14CM0
[19] = biological target: PDLIM1, O00151
[20] = biological target: T6, MPP2, Q14168
T6 sequence (Q14168 180-250, limits assumed, looked up): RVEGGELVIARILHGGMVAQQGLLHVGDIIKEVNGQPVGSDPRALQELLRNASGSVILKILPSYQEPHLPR

[21] = biological target: T7, GRIP1_4, Q9Y3R0
T7 sequence (Q9Y3R0 467-571, limits assumed, looked up): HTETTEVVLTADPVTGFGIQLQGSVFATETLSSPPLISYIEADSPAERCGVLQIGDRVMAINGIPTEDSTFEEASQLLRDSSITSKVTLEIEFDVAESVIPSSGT

[22] = biological target: T8, SNTA1, Q13424
T8 sequence (Q13424 82-180, limits assumed, looked up): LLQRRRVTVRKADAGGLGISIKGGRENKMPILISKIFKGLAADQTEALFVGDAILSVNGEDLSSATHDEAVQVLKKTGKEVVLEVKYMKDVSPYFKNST

[23] = biological target: Inadl_2, Q8NI35
[24] = biological target: TJP2_1, Q9UDY2
[25] = biological target: GORASP2, Q9H8Y8
[26] = biological target: DLG1_1, Q12959
[27] = biological target: IL16_4, Q14005
[28] = biological target: T9, MPP6, Q9NZW5
T9 sequence (Q9NZW5 125-219, limits assumed, looked up): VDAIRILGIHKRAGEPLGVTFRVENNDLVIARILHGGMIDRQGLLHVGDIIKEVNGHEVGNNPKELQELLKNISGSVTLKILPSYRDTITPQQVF

Chain of Inadl_2, Q8NI35 (Q8NI35 238-335): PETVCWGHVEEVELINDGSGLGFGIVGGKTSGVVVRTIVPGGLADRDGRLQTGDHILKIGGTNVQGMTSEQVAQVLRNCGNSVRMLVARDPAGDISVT
Chain of FRMPD4, Q14CM0 (Q14CM0 67-160): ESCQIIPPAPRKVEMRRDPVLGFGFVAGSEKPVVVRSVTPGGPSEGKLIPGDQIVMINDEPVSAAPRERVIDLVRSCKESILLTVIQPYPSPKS
Chain of DLG4_1, P78352 (P78352 62-152): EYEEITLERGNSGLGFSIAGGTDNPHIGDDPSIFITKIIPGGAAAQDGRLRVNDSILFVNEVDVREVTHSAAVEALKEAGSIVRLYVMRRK
Chain of GRID2IP_1, A4D2P6 (A4D2P6 1-87): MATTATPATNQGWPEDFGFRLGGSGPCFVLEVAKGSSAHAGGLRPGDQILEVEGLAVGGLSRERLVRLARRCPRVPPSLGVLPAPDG
Chain of MAGI2_4, Q86UL8 (Q86UL8 772-865): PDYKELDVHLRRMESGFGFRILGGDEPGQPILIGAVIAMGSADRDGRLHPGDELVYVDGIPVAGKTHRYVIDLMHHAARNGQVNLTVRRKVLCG
Chain of DLG2_2, Q15700 (Q15700 189-283): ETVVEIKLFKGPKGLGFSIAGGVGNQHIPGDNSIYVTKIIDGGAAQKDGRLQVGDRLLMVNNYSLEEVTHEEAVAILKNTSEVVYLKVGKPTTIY
Chain of ARHGEF12, Q9NZN5-2 (Q9NZN5 other isoform, or with tags, fused parts or gaps): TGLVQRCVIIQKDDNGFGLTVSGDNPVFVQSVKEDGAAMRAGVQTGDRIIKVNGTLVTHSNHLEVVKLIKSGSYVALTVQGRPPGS
Chain of TJP2_1, Q9UDY2 (Q9UDY2 24-128): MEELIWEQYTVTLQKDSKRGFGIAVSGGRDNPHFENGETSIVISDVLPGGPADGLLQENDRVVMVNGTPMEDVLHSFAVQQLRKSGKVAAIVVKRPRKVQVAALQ
Chain of MAGI3_2, Q5TCQ9 (Q5TCQ9 398-503): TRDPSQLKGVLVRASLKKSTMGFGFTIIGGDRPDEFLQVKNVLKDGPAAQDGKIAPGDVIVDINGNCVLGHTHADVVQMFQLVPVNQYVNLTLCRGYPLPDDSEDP
Chain of CASK, O14936 (O14936 487-570): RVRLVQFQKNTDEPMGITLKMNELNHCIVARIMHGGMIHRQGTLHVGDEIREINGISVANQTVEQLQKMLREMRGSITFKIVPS
Chain of MAGI2_6, Q86UL8 (Q86UL8 1141-1229): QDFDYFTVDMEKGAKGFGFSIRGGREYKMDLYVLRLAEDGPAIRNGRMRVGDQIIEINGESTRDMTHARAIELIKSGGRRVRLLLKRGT
Chain of NHERF2_2, Q15599 (Q15599 142-238): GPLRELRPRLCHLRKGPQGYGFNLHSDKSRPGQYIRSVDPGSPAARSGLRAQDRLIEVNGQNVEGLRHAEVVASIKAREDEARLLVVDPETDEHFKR
Chain of IL16_4, Q14005 (Q14005 1229-1329): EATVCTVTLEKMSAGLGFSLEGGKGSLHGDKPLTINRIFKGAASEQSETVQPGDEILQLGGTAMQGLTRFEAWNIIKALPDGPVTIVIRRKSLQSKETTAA
Chain of LIMK2, P53671 (P53671 143-248): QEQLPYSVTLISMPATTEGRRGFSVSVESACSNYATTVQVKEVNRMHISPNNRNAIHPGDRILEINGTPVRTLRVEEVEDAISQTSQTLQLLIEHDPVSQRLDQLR
Chain of FRMPD2_1, Q68DX3 (Q68DX3 770-861): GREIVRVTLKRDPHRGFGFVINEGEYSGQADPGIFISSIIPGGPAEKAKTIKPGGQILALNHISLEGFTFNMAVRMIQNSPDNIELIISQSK
Chain of GRIP2_3, Q9C0E4 (Q9C0E4 238-339): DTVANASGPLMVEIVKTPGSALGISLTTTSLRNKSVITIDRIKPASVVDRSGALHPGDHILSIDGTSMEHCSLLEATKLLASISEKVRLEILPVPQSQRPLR
Chain of PDLIM1, O00151 (O00151 1-87): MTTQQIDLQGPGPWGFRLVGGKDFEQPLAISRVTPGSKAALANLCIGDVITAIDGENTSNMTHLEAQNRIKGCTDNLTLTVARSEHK

pKd [2]	pKd [3]	pKd [4]	pKd [5]	pKd [6]	pKd [7]	pKd [8]	pKd [9]	pKd [10]	pKd [11]	pKd [12]	pKd [13]	pKd [15]	pKd [17]	pKd [18]	pKd [19]	pKd [20]	pKd [21]	pKd [22]	pKd [23]	Binder	also measured
below the threshold	below the threshold	below the threshold	below the threshold	below the threshold	3.61	below the threshold	below the threshold	below the threshold	below the threshold	below the threshold	below the threshold	below the threshold	below the threshold	3.82	below the threshold	below the threshold	below the threshold	below the threshold	below the threshold	GDHLDRRVVL [VAC14, Q08AM6]	pKd [1]: 3.62; pKd [28]: 3.51; pKd [14]: below the threshold; pKd [16]: 3.54; pKd [24]: below the threshold; pKd [25]: 3.87; pKd [26]: below the threshold; pKd [27]: below the threshold
below the threshold	below the threshold	below the threshold	below the threshold	below the threshold	below the threshold	below the threshold	below the threshold	below the threshold	below the threshold	below the threshold	below the threshold	below the threshold	3.82	3.66	below the threshold	below the threshold	below the threshold	below the threshold	below the threshold	LRYARPADAL [PPP1R3G, B7ZBB8]	pKd [1]: below the threshold; pKd [28]: below the threshold; pKd [14]: below the threshold; pKd [16]: 3.9; pKd [24]: below the threshold; pKd [25]: below the threshold; pKd [26]: below the threshold; pKd [27]: below the threshold

Continued, binder first:

Binder	pKd [2]	pKd [3]	pKd [4]	pKd [5]	pKd [6]	pKd [7]	pKd [8]	pKd [9]	pKd [10]	pKd [11]	pKd [12]	pKd [13]	pKd [15]	pKd [17]	pKd [18]	pKd [19]	pKd [20]	pKd [21]	pKd [22]	pKd [23]	also measured
KSTTRSSSSC [NDE1, Q9NXR1;Q9NXR1-2]	below the threshold	below the threshold	below the threshold	below the threshold	below the threshold	4.62	below the threshold	below the threshold	below the threshold	below the threshold	below the threshold	below the threshold	below the threshold	below the threshold	below the threshold	below the threshold	below the threshold	below the threshold	below the threshold	below the threshold	pKd [1]: below the threshold; pKd [14]: below the threshold; pKd [16]: below the threshold; pKd [24]: below the threshold; pKd [25]: below the threshold; pKd [26]: below the threshold; pKd [27]: below the threshold
EYRKDNKVAA [LSM14A, Q8ND56;Q8ND56-2]	below the threshold	below the threshold	below the threshold	below the threshold	below the threshold	below the threshold	below the threshold	below the threshold	below the threshold	below the threshold	below the threshold	below the threshold	below the threshold	below the threshold	below the threshold	below the threshold	below the threshold	below the threshold	below the threshold	below the threshold	pKd [28]: below the threshold; pKd [26]: below the threshold; pKd [27]: below the threshold
